Data taken from publication PMC10067955.

Target: NcsA from Methanococcus maripaludis (Methanococcus maripaludis)
Test: SEC; apo-MmNcsA on a gel filtration column calibrated with protein standards

## NcsA from Methanococcus maripaludis (enzyme)
  stoichiometry N: 2
